Data: article PMC5573083, “Structural and Functional Analysis of the Escherichia coli Acid-Sensing Histidine Kinase EvgS” (Journal of Bacteriology, 2017)

Target: the molecule itself
Assay: AUC; purified protein dialysed against 50 mM Tris-HCl pH 7; OD280 of 1 (printed as 0.1 μM protein); 40,000 rpm, 20°C; 200 scans; analysed with Sedfit; monomer to dimer

B1: EvgS-Cyt (entire cytoplasmic region of the Escherichia coli histidine kinase EvgS, residues 553 to 1193) (domain or fragment, UniProt P30855 553-1193, looked up)
chain: WGFYLLRSVRRRKVIQGDLENQISFRKALSDSLPNPTYVVNWQGNVISHNSAFEHYFTADYYKNAMLPLENSDSPFKDVFSNAHEVTAETKENRTIYTQVFEIDNGIEKRCINHWHTLCNLPASDNAVYICGWQDITETRDLINALEVEKNKAIKATVAKSQFLATMSHEIRTPISSIMGFLELLSGSGLSKEQRVEAISLAYATGQSLLGLIGEILDVDKIESGNYQLQPQWVDIPTLVQNTCHSFGAIAASKSIALSCSSTFPEHYLVKIDPQAFKQVLSNLLSNALKFTTEGAVKITTSLGHIDDNHAVIKMTIMDSGSGLSQEEQQQLFKRYSQTSAGRQQTGSGLGLMICKELIKNMQGDLSLESHPGIGTTFTITIPVEISQQVATVEAKAEQPITLPEKLSILIADDHPTNRLLLKRQLNLLGYDVDEATDGVQALHKVSMQHYDLLITDVNMPNMDGFELTRKLREQNSSLPIWGLTANAQANEREKGLSCGMNLCLFKPLTLDVLKTHLSQLHQVAHIAPQYRHLDIEALKNNTANDLQLMQEILMTFQHETHKDLPAAFQALEAGDNRTFHQCIHRIHGAANILNLQKLINISHQLEITPVSDDSKPEILQLLNSVKEHIAELDQEIAVFC
notes: EvgS sensor histidine kinase, Escherichia coli, cytoplasmic domains comprising amino acid residues 553 to 1193; expected monomer mass printed as 72.3 kDa; Amplified from pBADEvgS and cloned NdeI-HindIII into a modified pET41c in which the GST tag is replaced by a C-terminal His8 tag; By the forward primer a start methionine precedes R553 (ATGCGCTCAGTTCGTCGTCGT); No cleavage of the tag is …
- stoichiometry N: 2
